In US20100233157A1 (published 2010):

How the values were obtained:
[1] = biological target: T1, Common marmoset Fas on the cell surface (common marmoset (Callithrix jacchus)); assay: flow cytometry on the marmoset B cell line 9601, FITC anti-human IgG secondary, MFI after subtraction of the control human γ1 staining
T1 construct: whole, on cells
From the text: (§1) Reactivity of F45D9-γ1 or F45D9-γ4 mAb with Fas molecules of various species was initially screened using primary blood cells or lymphocytes cell lines. The binding of F45D9-γ1 or F45D9-γ4 mAb was explored by immunofluoresce staining and flow cytometry analysis, in human PBMC, purified human resting T cells, activated human T cells, peripheral blood lymphocytes (PBL) derived from BALE/c mice, rat, dog and pig, and in B cell lines or PBL derived from common marmoset, cynomolgus macaque, olive baboon, rhesus macaque and chimpanzee. Resting and activated human T cells were prepared as described in Example 7. B cells lines from monkeys were obtained from Biomedical Primate Research Center (Rijswijk, The Netherlands), and were cultured in RPMI 1640 medium supplemented with 2 mM glutamax, 100 UI/mL penicillin, 100 μg/mL streptomycin and 10% fetal bovine serum, at 37° C. and 5% CO₂. After washing in PBS cells (0.2−0.4×10⁶ cells/well) were incubated in staining buffer (PBS/1% FBS) containing F45D9-γ1 or human IgG control antibodies (10-20 ug/ml) in a 96-well U-bottom plate for 30 min on ice, in a 100 ul/well volume. Cells were then washed once with staining buffer, and further incubated for 30 min on ice with 1:30 dilution of FITC-conjugated rabbit F(ab′)₂ anti-human kappa (DakoCytomation Cat. F0434) or FITC-conjugated rabbit F(ab′)₂ anti-human IgG (DakoCytomation Cat. F0056). […]

[2] = biological target: T2, Human Fas (CD95) on the cell surface (human, UniProt P25445 26-335); assay: flow cytometry on Jurkat cells, FITC anti-human IgG secondary, geometric MFI after background subtraction
T2 construct: also called APO-1; TNR6_Human
T2 sequence: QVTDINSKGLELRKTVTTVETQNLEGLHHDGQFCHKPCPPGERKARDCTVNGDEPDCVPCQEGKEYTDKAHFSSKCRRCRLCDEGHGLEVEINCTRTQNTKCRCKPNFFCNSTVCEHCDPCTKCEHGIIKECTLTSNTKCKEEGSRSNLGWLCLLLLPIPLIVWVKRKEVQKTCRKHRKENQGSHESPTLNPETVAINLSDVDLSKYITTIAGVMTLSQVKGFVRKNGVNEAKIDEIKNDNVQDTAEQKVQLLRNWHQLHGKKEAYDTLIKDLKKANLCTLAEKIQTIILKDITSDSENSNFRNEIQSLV
Method: (§2) Binding of F45D9-γ1 and F45D9-γ4 to the surface of Fas expressing Jurkat and SKW6.4 cells (from ATCC, Jurkat, clone E6-1, ATCC-TIB-152, Human T Leukemia cell line); SKW6.4 cells, ATCC-TIB-215, Human B lymphoblastoid cell line) was explored by immunofluorescence staining and flow cytometry analysis. Cells were cultured in RPMI 1640 medium (GIBCO, Cat. 3105205) supplemented with 2 mM glutamax (GIBCO), 100 UI/mL penicillin, 100 μg/mL streptomycin (Sigma) and 5-10% fetal bovine serum (GIBCO), at 37° C. and 5% CO₂. After washing in PBS Jurkat or SKW6.4 cells (0.2×10⁶ cells/well) were incubated in staining buffer (PBS/1% FBS) containing F45D9-γ1, F45D9-γ4 or human IgG control antibodies (Human IgG1, kappa, Sigma, Cat. I5154 or Human IgG4, kappa, Sigma, Cat. I4639) in a 96-well U-bottom plate for 30 min on ice, in a 100 ul/well volume. Cells were then washed once with staining buffer, and further incubated for 30 min on ice with 1:30 dilution of FITC-conjugated rabbit F(ab′)₂ anti-human IgG (DakoCytomation Cat. F0056). After washing and fixing with 1% formaldehyde in PBS cells were analyzed in a FACScan (Becton Dickinson, Mountain View, Calif.). The reactivity of F45D9-γ1 and F45D9-γ4 to the surface of Jurkat cells was quantified and Geometric Mean Fluorescence Intensity (MFI) after background subtraction (FIG. 1A) and histograms (FIG. 1B) are shown. […]

[3] = biological target: T1, Common marmoset Fas on the cell surface; assay: flow cytometry on the marmoset B cell line 9505, FITC anti-human IgG secondary, MFI after subtraction of the control human γ1 staining
From the text: as §1

[4] = biological target: T2, Human Fas (CD95) on the cell surface; assay: flow cytometry on SKW6.4 cells, FITC anti-human IgG secondary, geometric MFI after background subtraction
Method: as §2

[5] = biological target: T3, Mouse Fas on the cell surface (mouse, UniProt P25446 22-327); assay: flow cytometry histograms (FL1-H) on mouse PBL, FITC anti-human kappa secondary
T3 construct: whole, on cells; also called Fas on peripheral blood lymphocytes of BALB/c mice
T3 sequence (looked up): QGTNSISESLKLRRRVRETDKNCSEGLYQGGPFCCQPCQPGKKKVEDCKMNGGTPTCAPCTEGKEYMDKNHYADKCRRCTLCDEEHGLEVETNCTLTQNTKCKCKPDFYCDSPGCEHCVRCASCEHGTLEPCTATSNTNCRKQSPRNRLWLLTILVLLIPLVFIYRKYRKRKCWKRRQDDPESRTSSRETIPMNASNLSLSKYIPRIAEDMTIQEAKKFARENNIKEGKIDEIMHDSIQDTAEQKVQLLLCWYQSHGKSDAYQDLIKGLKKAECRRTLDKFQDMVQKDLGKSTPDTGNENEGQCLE
From the text: as §1

[6] = biological target: T2, Human Fas (CD95) on the cell surface; assay: cell-based or functional assay

B1: F45D9-γ1 mAb (recombinant human mAb T17/B2-1G4, gamma-1 isotype) (antibody, V domains shown)
VH: QVQLQQWGAGLLKPSETLSLICAVYGGSFSTYYWTWIRQPPGKGLEWIGEINHRGTTNYSPSLKSRVTISVDTSKNHISLNLTSVTAADTALYYCARGLLWIGEGDYGLDVWGQGTTVTVSS
VL: DIQMTQSPSSLSASVGDRVTITCRASQGIRRWLAWYQQKPEKAPKSLIYAASSLQSGVPSRFSGSGSGTDFTLTISSLQPEDFATYYCQQYNSYPYTFGQGTKLEIKR
notes: Whole human IgG1 (γ1fa allotype) with human kappa light chain, made in CHO DG44 cells; also called IgG1; T17/L18/B2-1G4
EC50 (read off the curve) [1]: ~1 mg/L
EC50 (read off the curve) [2]: ~0.5 mg/L
EC50 (read off the curve) [3]: ~2 mg/L
EC50 (read off the curve) [4]: ~0.4 mg/L
binding result [5]: no binding
IC50 of inhibition of rhFasL-induced apoptosis in SKW6.4 cells (Annexin-V/PI, flow cytometry) [6]: 0.2 nM
IC50 of inhibition of rhFasL-induced apoptosis in activated human T cells (Annexin-V/PI, flow cytometry) [6]: 0.02 nM
share of binding capacity on Jurkat cells at which complete blocking of FasL-induced apoptosis is achieved [6]: ≥ 12.5%
